Laboratory results taken from patent US20230009582A1 (MEMO THERAPEUTICS, published 2023).
Values belong to the binder of their own block, whether it stands above or below them.

Tests used:
[1] = target: T1, Siglec-15-Fc (R&D systems) (UniProt Q6ZMC9 20-263, limits assumed); assay: ELISA, coated Siglec-15-Fc 1 µg/ml, single antibody concentration, anti-human Fab detection, Abs 450 nm, n=3
T1 construct: Bought reagent; not shown: Fc part of the bought fusion; not described
T1 sequence (looked up): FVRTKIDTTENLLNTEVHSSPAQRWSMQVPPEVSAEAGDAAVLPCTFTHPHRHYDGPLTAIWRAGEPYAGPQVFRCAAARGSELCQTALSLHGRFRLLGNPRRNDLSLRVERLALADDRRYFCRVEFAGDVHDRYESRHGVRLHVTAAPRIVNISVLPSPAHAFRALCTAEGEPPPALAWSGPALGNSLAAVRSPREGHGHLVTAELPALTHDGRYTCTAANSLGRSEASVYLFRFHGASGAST
Experimental: (§1) Specificity towards Siglec-5, Siglec-7, Siglec-8, Siglec-15 and Siglec-9 was assayed in enzyme-linked immunosorbent assay (ELISA) using 96 well half-area ELISA plates (Corning). Siglec-5-Fc (R&D systems), Siglec-7-Fc (in-house production, Siglec-7-Fc protein used had the following amino acid sequence:
(§2) (SEQ ID NO: 59)) […] […] […] […] […] […] […] […] […] […] […] […], Siglec-8-Fc (R&D systems), Siglec-15- Fc (R&D systems) and Siglec-9-Fc (in-house production, SEQ ID NO: 11) were coated at 1 μg/ml in 50 mM carbonate-bicarbonate buffer pH 9.6 for 15-20 hours at 4° C.
(§3) Antigens were washed away (Tecan Hydrospeed) and plates were blocked with 5% skimmed milk in phosphate-buffered saline (PBS). After washing the plates, antibodies were added at 5 μg/ml (33 nM) in 0.5% milk PBS in triplicates. Plates with antibodies were incubated for 1 hour at room temperature. Plates were washed and bound antibodies were detected by horseradish peroxidase (HRP)-labeled polyclonal anti-rabbit IgG antibody (Biolegend) or anti-human Fab fragment for mAbA (Sigma Aldrich). 3,3′,5,5′-Tetramethylbenzidine (TMB; Sigma Aldrich) development was stopped by addition of sulfuric acid and absorbance was detected at 450 nm (Tecan, CM […] MONO 200).

[2] = target: T2, Siglec-7-Fc (in-house production); assay: ELISA, coated Siglec-7-Fc 1 µg/ml, single antibody concentration, anti-human Fab detection, Abs 450 nm, n=3
T2 construct: The entry holds the Siglec-7 part and the Fc together; also called Siglec-7-Fc protein
T2 sequence (chain, as listed by the source limits assumed): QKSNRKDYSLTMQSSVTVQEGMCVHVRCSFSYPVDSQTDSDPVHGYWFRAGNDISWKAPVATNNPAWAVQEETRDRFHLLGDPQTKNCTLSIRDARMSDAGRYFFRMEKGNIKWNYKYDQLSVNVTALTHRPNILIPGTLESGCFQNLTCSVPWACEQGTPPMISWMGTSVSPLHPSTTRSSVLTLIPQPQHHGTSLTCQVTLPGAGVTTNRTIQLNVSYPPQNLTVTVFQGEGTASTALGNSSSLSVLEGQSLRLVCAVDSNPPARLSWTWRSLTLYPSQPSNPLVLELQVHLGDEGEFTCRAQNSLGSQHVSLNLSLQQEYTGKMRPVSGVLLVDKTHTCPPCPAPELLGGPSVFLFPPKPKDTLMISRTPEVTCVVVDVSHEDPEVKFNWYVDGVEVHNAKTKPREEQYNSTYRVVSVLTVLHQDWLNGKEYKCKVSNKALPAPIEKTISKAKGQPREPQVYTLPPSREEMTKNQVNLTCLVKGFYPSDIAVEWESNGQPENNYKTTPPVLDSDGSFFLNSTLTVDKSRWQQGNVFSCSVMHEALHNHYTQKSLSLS
Experimental: as §1, §2, §3

[3] = target: T3, Siglec-8-Fc (R&D systems) (UniProt Q9NYZ4 17-363, limits assumed); assay: ELISA, coated Siglec-8-Fc 1 µg/ml, single antibody concentration, anti-human Fab detection, Abs 450 nm, n=3
T3 construct: Bought reagent; not shown: Fc part of the bought fusion; not described
T3 sequence (Q9NYZ4 17-363 limits assumed): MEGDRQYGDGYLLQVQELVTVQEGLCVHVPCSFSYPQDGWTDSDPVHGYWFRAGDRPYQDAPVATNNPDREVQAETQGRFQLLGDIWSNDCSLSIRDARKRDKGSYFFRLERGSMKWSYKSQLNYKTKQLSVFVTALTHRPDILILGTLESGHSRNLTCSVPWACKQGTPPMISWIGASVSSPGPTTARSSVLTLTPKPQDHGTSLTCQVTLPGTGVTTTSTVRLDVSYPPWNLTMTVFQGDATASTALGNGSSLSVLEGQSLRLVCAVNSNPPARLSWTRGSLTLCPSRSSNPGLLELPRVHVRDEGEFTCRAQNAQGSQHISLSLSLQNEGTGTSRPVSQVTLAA
Experimental: as §1, §2, §3

[4] = target: extra-cellular domain of Siglec-9 fused to a C-terminal his-tag (Homo sapiens (Human), UniProt Q9Y336 18-348); assay: ELISA, coated his-tagged Siglec-9 extracellular domain, anti-human Fc gamma detection, Abs 450 nm
Sequence of extra-cellular domain of Siglec-9 fused to a C-terminal his-tag (Q9Y336 18-348 limits assumed): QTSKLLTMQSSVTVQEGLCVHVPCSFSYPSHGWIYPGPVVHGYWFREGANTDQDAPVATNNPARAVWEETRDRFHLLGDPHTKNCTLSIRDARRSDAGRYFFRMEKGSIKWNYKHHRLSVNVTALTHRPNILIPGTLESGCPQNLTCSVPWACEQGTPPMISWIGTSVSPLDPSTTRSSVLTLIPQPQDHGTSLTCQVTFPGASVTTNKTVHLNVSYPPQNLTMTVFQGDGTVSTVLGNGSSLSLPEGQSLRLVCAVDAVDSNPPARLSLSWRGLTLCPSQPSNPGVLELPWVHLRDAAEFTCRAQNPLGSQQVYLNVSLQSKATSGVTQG
Description: (SEQ ID NO: 44) […] […] […] […] […] […] […]. For detection of bound IgG either polyclonal anti- rabbit IgG antibody (68D4; Biolegend, #406401), or anti-human Fey fragment (humanized 68D4 and mAbA; Jackson Immuno Research laboratories, #109-035-098) were used.

[5] = target: T4, Siglec-9 expressed on cells (human, UniProt Q9Y336 18-463); assay: flow cytometry on human CD14+ monocytes (PBMC), mean RFU of the anti-human secondary antibody, three-parameter fit
T4 construct: also called monocyte-expressed Siglec-9
T4 sequence (Q9Y336 18-463 limits assumed): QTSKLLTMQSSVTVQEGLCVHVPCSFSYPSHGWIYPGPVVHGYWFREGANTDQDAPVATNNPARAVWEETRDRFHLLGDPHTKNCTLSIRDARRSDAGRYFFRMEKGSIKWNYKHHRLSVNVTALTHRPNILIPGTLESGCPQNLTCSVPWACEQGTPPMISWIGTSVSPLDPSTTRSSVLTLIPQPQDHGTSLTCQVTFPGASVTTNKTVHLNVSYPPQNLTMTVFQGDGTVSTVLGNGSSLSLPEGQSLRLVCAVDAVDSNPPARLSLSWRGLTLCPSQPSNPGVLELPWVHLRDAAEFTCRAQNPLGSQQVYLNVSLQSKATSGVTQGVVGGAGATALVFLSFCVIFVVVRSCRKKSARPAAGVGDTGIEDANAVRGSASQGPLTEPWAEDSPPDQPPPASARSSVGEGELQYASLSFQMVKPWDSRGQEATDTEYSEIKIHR
Experimental: (§4) Human ex vivo PBMC were stained with fluorescence-labeled (allophycocyanin, APC) antibody to the monocyte marker CD14 (Biolegend) in assay buffer (0.5% (v/v) heat-inactivated fetal bovine serum (Gibco), 2 mM EDTA in phosphate-buffered saline). Subsequently, cells were incubated with antibodies under evaluation at various concentrations (67 nM-0.38 pM). After a washing step cells were incubated with fluorescence-labeled (Brilliant Violet 421™) secondary antibody against human IgG (mAbA) or rabbit IgG (all other monoclonal antibodies under evaluation; both secondary antibodies from Biolegend).
(§5) Binding of Siglec-9-specific antibodies to monocytes (CD14-positive life cells) was analysed with a CytoFLEX flow cytometer (Beckham Coulter's). The mean fluorescence intensity of the secondary antibody staining in the CD14-positive population at each dilution was determined using Flow Jo software (BD). Datapoints generated by this analysis were fitted and EC50 values were determined by three-parameter analysis in GraphPad Prism (GraphPad Software)

[6] = target: T4, Siglec-9 expressed on cells; assay: flow cytometry on human CD14+ monocytes (PBMC), mean RFU of the secondary antibody, three-parameter fit
Experimental: as §4, §5

[7] = target: T1, Siglec-15-Fc (R&D systems); assay: ELISA, coated Siglec-15-Fc 1 µg/ml, single antibody concentration, Abs 450 nm, n=3
Experimental: as §1, §2, §3

[8] = target: T4, Siglec-9 expressed on cells; assay: flow cytometry on human CD14+ monocytes in PBMC
Experimental: as §4, §5

[9] = target: T2, Siglec-7-Fc (in-house production); assay: ELISA, coated Siglec-7-Fc 1 µg/ml, antibody at 5 µg/ml (33 nM), Abs 450 nm, n=3
Experimental: as §1, §2, §3

[10] = target: T3, Siglec-8-Fc (R&D systems); assay: ELISA, coated Siglec-8-Fc 1 µg/ml, single antibody concentration, Abs 450 nm, n=3
Experimental: as §1, §2, §3

[11] = target: T5, Siglec-5-Fc (R&D systems) (UniProt O15389 17-434, limits assumed); assay: ELISA, coated Siglec-5-Fc 1 µg/ml, single antibody concentration, Abs 450 nm, n=3
T5 construct: Bought reagent; not shown: Fc part of the bought fusion; not described
T5 sequence (looked up): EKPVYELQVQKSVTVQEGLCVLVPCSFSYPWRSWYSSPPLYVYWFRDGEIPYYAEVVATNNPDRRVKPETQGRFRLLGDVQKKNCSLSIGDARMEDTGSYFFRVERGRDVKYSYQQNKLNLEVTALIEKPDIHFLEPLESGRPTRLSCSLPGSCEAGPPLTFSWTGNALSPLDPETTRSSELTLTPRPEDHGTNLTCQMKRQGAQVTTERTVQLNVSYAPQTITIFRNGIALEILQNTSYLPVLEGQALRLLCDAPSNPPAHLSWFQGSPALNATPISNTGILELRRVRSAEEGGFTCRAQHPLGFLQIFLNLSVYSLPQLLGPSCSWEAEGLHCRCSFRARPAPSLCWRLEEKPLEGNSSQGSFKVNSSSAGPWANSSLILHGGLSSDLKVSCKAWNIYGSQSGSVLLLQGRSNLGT
Experimental: as §1, §2, §3

- binding result [1]: no binding (tested: 5 µg/ml)
- binding result [2]: no binding (tested: 5 µg/ml)
- binding result [3]: no binding (tested: 5 µg/ml)
- EC50 (read off the curve) [4]: ~60 pM
- EC50 [5]: 0.58 nM
B1: comparative monoclonal antibody mAbA (WO 2017/153433), mouse-human chimera (antibody, human IgG1, kappa, V domains shown)
VH: QVQLQQPGAELVKPGSPVKLSCKASYFTFTSYWMHWVRQRPGQGLEWIGEINPSNGHTNYNEKFESKATLTVDRSSSTAYMQLSSLTSEDSAVFYCANGVESYDFDDALDYWGQGTSVTVSS
VL: DIQMTQTTSSLSASLGDRVTISCRASQDINNYLNWYQQKPDGTIKLLIYYTSRLHSGVPSRFSGSGSGTDYSLTINNLEQEDIATYFCQQGNTLPFTFGGGTKLEIKR

- EC50 [6]: 0.4 nM
- binding result [7]: no binding (tested: 5 µg/ml)
- fold stronger binding than 5C6 [8]: ~10 fold
- binding result [9]: binds
- binding result [10]: no binding (tested: 5 µg/ml)
- binding result [11]: no binding (tested: 5 µg/ml)
B2: monoclonal antibody 224B1 (rabbit) (antibody, V domains shown)
VH: QSVEESGGRLVTPETPLTLTCTASGFSLSSYYMSWVRQAPGKGLEWIGYIWTDGSAHYATWTKGRFTISKTSSTTVDLKITSPTTEDTATYFCVRANSGSHTYIEKFNLWGPGTLVTVSS
VL: DVVMTQTPASVEATVGGSVTIKCQASPSINDELSWYQQKPGQRPTLLIYEASALESGVPSRFKGSGSGTEFTLTIGDLECADAATYYCQCTYGSRSDISYGNTFGGGTEVVVKG
